{"source": "paper PMC9772109", "about": "(Immunity, 2022)", "binders": {"B1": {"name": "789-203-3C12 AA variant mAb (Cys33Ala/Cys52Ala heavy chain with the 789-203-3C12 light chain), IgG (antibody, V domains shown)", "VH": "QVQLQESGPGLVKPSEILSLTCAVSGGSFSSYAWGWIRQPPGKGLEWIGSIAGSGGSNYLNPSLKSRVTLSVDTSKNQFSLILNSVTAADTAVYYCAREGITIFGVVIPRVLDSWGQGAVVTVSS", "VL": "DIQMTQSPSSLSASVGDTVTITCRASQSISSWLAWYQQKPGKAPNLLIYRASTLQSGVPSRFSGSGSGTDFTLTISSLQSEDFATYFCQQSTSSPFTFGPGTKLDIK"}}, "biological_target": "H1 HA (recombinant HA of Figure 4E) (Influenza A virus, H1 subtype; strain …, UniProt A0A1J0CXU0)", "test": "BLI", "data": [{"binder": "B1", "values": [{"measurement": "binding result", "value": "binds"}]}]}
